From US20080220004A1 (published 2008)
Each block holds one molecule with its values, some of them ahead of it.

What was measured:
[1] = biological target: chimeric receptor Flt(1-7)-EpoR on Baf/3 cells (human) (UniProt P17948); assay: cell-based or functional assay
human VEGF165 = human VEGF165 (human, UniProt P15692-4 27-191); assay: ELISA of rabbit ocular tissue and plasma samples on human VEGF165-coated plates (pharmacokinetic detection)
human VEGF165, sequence (P15692 other isoform, or with tags, fused parts or gaps): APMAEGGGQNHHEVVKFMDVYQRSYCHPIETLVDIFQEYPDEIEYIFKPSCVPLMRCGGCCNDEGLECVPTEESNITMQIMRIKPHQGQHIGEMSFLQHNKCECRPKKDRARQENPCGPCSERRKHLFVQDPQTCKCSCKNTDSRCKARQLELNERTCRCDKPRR
Experimental: Ocular and systemic levels of two VEGF inhibitors were determined after a single intravitreal administration to male Pigmented New Zealand Cross Bred rabbits. At various time points following the injection, the rabbits were sacrificed and vitreous, retina, and choroid tissues were collected, as well as blood samples for plasma and serum.
Sample Processing. Generally, vitreal samples were thawed at room temperature and transferred to individual 5 mL polypropylene tubes. An equivalent weight per volume of RIPA buffer (20 MM Tris HCl, pH 7.5, 5 mM benzamidine, 150 mM sodium chloride, 50 mM sodium fluoride, 1 mM sodium orthovanadate, and 1 mM EDTA) was added to each sample, and homogenized (Cyclone I.Q. Microprocessor, Sentry) for 2, 45 second cycles at 5,500 rpm. The samples were then incubated for 20 minutes on ice and then centrifuged for 30 minute at 5,500 rpm at 4° C. The supernatant was removed and stored at −80° C. for analysis. Retinal and choroid samples were similarly processed the samples were homogenized for 30-60 seconds at the highest speed setting (Ultra Tunax T8 Homogenizer with S8N-5G Disposing Element, IKA Laboratoies). The samples were transferred to individual 1.5 mL eppendorf tubes and incubated for 20 minutes on ice. They were then centrifuged for 30 minutes at 5,500 rpm, 4° C. […]

chimeric receptor Flt(1-7)-EpoR on Baf/3 cells (human), sequence (P17948 other isoform, or with tags, fused parts or gaps mutant limits assumed): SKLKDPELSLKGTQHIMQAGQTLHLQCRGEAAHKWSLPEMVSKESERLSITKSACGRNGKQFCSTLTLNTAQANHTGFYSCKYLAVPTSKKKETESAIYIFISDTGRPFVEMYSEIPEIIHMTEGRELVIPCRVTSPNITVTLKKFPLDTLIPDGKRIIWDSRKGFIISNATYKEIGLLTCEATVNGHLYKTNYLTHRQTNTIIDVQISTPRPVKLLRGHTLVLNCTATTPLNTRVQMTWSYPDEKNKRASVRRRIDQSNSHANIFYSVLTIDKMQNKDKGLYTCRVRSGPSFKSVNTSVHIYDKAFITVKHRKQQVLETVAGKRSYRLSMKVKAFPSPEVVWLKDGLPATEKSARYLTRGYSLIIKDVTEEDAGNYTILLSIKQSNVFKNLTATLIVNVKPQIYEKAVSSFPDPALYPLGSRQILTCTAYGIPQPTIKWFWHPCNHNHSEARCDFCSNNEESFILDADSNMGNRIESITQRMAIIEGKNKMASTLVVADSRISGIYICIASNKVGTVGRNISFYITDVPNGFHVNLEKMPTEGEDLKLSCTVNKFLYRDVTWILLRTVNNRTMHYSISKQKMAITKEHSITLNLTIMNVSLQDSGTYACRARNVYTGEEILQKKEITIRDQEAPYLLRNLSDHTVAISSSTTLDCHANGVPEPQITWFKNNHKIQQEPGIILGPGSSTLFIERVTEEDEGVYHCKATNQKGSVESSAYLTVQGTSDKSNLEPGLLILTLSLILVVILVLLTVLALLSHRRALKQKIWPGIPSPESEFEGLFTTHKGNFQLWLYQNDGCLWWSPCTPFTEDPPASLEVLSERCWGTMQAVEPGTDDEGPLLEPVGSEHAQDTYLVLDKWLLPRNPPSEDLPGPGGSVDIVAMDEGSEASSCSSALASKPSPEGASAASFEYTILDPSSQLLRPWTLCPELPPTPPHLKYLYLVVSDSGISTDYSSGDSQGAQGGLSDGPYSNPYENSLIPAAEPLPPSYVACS

proliferation of Baf/Flt(1-7)-EpoR cells (WST-8 bioreduction), EC50 [1]: 0.018 nM
Molecule: VEGF 121 (R&D Biosystems) (from UniProt P15692 27-147) (ligand)

binding result (human VEGF165): binds
B1: mini-VEGF trap (other)
chain: SDTGRPFVEMYSEIPEIIHMTEGRELVIPCRVTSPNITVTLKKFPLDTLIPDGKRIIWDSRKGFIISNATYKEIGLLTCEATVNGHLYKTNYLTHRQTNTIIDVVLSPSHGIELSVGEKLVLNCTARTELNVGIDFNWEYPSSKHQHKKLVNRDLKTQSGSEMKKFLSTLTIDGVTRSDQGLYTCAASSGLMTKKNSTFVRVHEKDKTHTCPPC
notes: also called truncated VEGF trap protein
